This is an account of results in US20210032351A1 (XDCEXPLORER SHANGHAI, published 2021).

For test [1], the target named is T1, human EGFR protein (wild-type), on cells (human, UniProt P00533 25-1210).
T1 construct: whole, on cells; transfected on CHO-K1 cells; endogenous on the human cell lines; the cell is named under assay; also called wild-type EGFR; hEGFR
The test is described as follows: FACS on HFF-1, HFL-I, QSG-7701, HEEC, HEB, WPMY-1 and MCF-10A cells.

The target in test [2] is T2, human EGFRvIII-hFc protein (human, UniProt P00533 25-645).
T2 construct: extracellular domain; made in HEK293 cells, purified on protein A; also called immunogen A; hFc-tagged EGFRvIII protein; not shown: human IgG Fc fragment (hFc) of the pCpC vector
As to the kind of experiment: ELISA, plate coated with human EGFRvIII-hFc, HRP secondary antibody, absorbance at 450 nm. The procedure:
The purified immunogen A (EGFRvIII-hFc) obtained in example 1 (for the preparation method, see step (I) in example 1) is diluted with PBS to a final concentration of 1.0 μg/mL, and then added to a 96-well ELISA plate at 100 μl/well. The plate is sealed with a plastic film and incubated at 4° C. overnight. The next day, the plate is washed twice with a plate washing solution [PBS+0.01% (v/v) Tween20], and added with a blocking solution [PBS+0.01% (v/v) Tween20+1% (w/w) BSA] for blocking 2 hours at room temperature. […] The plate is incubated for 2 hours at 37° C., and then washed 3 times with the plate washing solution [PBS+0.01% (v/v) Tween20]. The plate is added with an HRP (horseradish peroxidase) labeled secondary antibody (purchased from Sigma), incubated at 37° C. for 2 hours, and then washed 3 times with the plate washing solution [PBS+0.01% (v/v) Tween20]. The plate is added with 100 μl of TMB substrate/well, incubated for 30 minutes at room temperature, and then added with 100 μl of stopping solution (1.0N HCl)/well. A450 nm value is read using an ELISA plate reader (SpectraMax 384plus, purchased from Molecular Device), and the results are shown in FIG. 11 and table 19.

B1: Chimeric antibody 7E5 (antibody, human IgG1, V domains shown)
VH: EIQLQQSGPELVKPGASVKVSCKASGYSFTDYNMYWVKQSHGKSLEWIGYVDPSNGGTNYNQKFKGKATLTVDKSSSTAFMHLNSLTSEDSAVYYCARGFFDYWGQGTTLTVSS
VL: DIVMTQSPSSLTVTAGEKVTMSCKSSQSLLNSGNQKNYLTWYQQKPGQPPKLLIYWASNRESGVPDRFTGSGSGKDFTLTISSVQAEDLAVYYCQNDYRYPVTFGAGTKLELK
notes: also called 7E5-2A9 (chimeric)
As for B1, in test [1], the binding result is on record as “no binding”. The “EC50 (read off the curve)” value in test [2] is approximately 30 pM.
